Literature values as cited in paper PMC7226498.

Biological target: p53 OD (Homo sapiens) (UniProt P04637)

Sequence of p53 OD (P04637 325-356): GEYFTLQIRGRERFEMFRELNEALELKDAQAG

Kd: 1 nM
Substance: p53 OD (from UniProt P04637)
